A protein production outcome set (Wang et al. 2014)

Assay: label from the status in PepcDB records

MLSAYFSGSETGLLSLNKYRLRFLSEQGNKGAKKAEKLLEKPDTLLSFILIFNNLVNISASAIATVIGMRLYGDAGVAIATGLLTFVMLVFSEIFPKTVAAMHAEKVSFFSSHILTSLLKIFYPLVWLMNIFTKSLMQIVGLKLDMQKQVISSEELRSIVSEAGEATPNEQHPQMLLSILDMETVTVDDIMVPRNEIGGINIDDDWRAIMRQLNHAAHNRVVLYKGSLDEQVLGILRVREAFRLLLEKNEFTKETLIRAADEVYFIPESTPLKTQLANFRTNKERIGLVVDEYGDIKGLVTLEDILEEIVGDFTTSTAPSIDKEVIQQSDGSMIIDGSANLRDLNKMFNWELDTEDARTFNGLILEHLEEIPDEGTICEIDGLLITILEVGDNMIKQAKVVKL
protein production: not failed

MLRLVKTRPSLRLGPSETAVIRVLDQERIDRINQDLTRAWKADVETTCVLSGILLLPCLILICLLDGPLFAKVILCTFLCLMVGGWCIAKWLNAQAQPRTDITGVKVEQLEGYFDRRWVRNGGKPYIEYSFGKHWLHIQTSACSFFSGDTQLKLNRRYRVDALYLTGHSSAYTGYYLLEETFKEIFDDSDLSAAEKIQIAEREKRINQDLEEQHKRLYRLYRNPQGELEAVAIGFNFAACFLTVLWSFCVSLYWVTGLTLAALGLILLIPDTGAGHPWFALGWLLSAGVFGACGNLWRERQVLSKGFVQVDALLSCNPDQAKVQYKRKVEEAAPGFGQ
protein production: failed

MTSAQKPVFSPSDLQTWLEIATEAVLAAGAEIFSLWGKVQQIQEKGRAGDLVTEADRQAEAIILEIIKRRCPDHAILAEESGQLGQVDNPFCWAIDPLDGTTNFAHSYPVSCVSIGLLIQDIPTVGVVYNPFRQELFRAATSLGATLNRRPIQVSTTASLDKSLLVTGFAYDRVKTLDNNYPEFCYLTHLTQGVRRSGSAAIDLIDVACGRLDGYWERGINPWDMAAGIVIVREAGGIVSAYDCSPLDLSTGRILATNGKIHQELSQALAATPQWFQQYAAARAQKI
protein production: failed

METRTLEDWRALLEAEKTLDSGVYNKHDLLIVRGQGARVWDAEGNEYIDCVGGYGVANLGHGNPEVVEAVKRQAETLMAMPQTLPTPMRGEFYRTLTAILPPELNRVFPVNSGTEANEAALKFARAHTGRKKFVAAMRGFSGRTMGSLSVTWEPKYREPFLPLVEPVEFIPYNDVEALKRAVDEETAAVILEPVQGEGGVRPATPEFLRAAREITQEKGALLILDEIQTGMGRTGKRFAFEHFGIVPDILTLAKALGGGVPLGAAVMREEVARSMPKGGHGTTFGGNPLAMAAGVAAIRYLERTRLWERAAELGPWFMEKLRAIPSPKIREVRGMGLMVGLELKEKAAPYIARLEKEHRVLALQAGPTVIRFLPPLVIEKEDLERVVEAVRAVLA
protein production: not failed

MKRKTIRILLISSGLILILLVGYRLYLEYQTDIQLFLNPKASKTQLLERIRSHGFSAALLLVFLTAIMCAVPGIPTSVIGVIAGLSFGPFSGTLINVLGNSMGNLVAIFLMHHIKFLDKKTETNHWVQSIRRMKHPKIGIMVGYMIPIIPSSVINFAADTMQLPLKNLIAAIFIGVIPSSILYACGGEALFHGYNKTAVLLIVSVLLFVGLVVIIEKDRKRFQKTVL
protein production: failed

MSNHEEKKQHVALSSVAASLLLTAMKLVVGLMTGSIGILSEAAHSAIDFGAAALTWFAVRISDKPADKKHHYGHTKIESVSALIETGLLILTSVWIIYEAVTRLLSGTTEIEVTWYAIAVIIISIIVDISRASALKKVAKETKSQALEADALHFTSDIVSSAVVLAGLGFVALGMHWADAVAGIFVAVLVGKAAWELGRKTIDVLIDTAPEGLSEQIEEIVVNAPGVIGINKMRIKPAGGPFVFIDLTISVSRTLPQEKVVAICAGVEQRLKAALPDSDITVNARPVVLDSETVTERIHTIGLNHGLHAHNILTSLSGDHKQITFDVEVDSRLTIRQAHDAVTELENELHREFNEEIDLCIHLDPINSEERNVQPADPENEARITALIRQAASTIPGILNVHALKIHVLSYNKLCITLHCGFDDNTVLADVHPLTSRLECLIYRDIPETSRIIVHAEPVNAGD
protein production: failed

MSRSGQPPDLKKYMDKKLQIKLNANRMVVGTLRGFDQFMNLVVDNTVEVNGDDKTDIGMVVIRGNSIVTVEALEPVGRS
protein production: failed

MAQKLEAKGGEMGDVWDDGVYENVRKVYVGQAQYGIAFVKFEYVNGSQVVVGDEHGKKTELGVEEFEIDADDYIVYVEGYREKVNDMTSEMITFLSIKTFKGKTSHPIEKRPGVKFVLHGGKIVGFHGRSTDVLHSLGAYVSLSSTIKLLGKWIKVEQKGEGPGLRCSHGIAQVGNKIYSFGGEFTPNQPIDKHLYVFDLETRTWSISPATGDVPHLSCLGVRMVSVGSTLYVFGGRDASRQYNGFYSFDTTTNEWKLLTPVEEGPTPRSFHSMAADEENVYVFGGVSATARLNTLDSYNIVDKKWFHCSTPGDSLTARGGAGLEVVQGKVWVVYGFNGCEVDDVHYYDPVQDKWTQVETFGVRPSERSVFASAAIGKHIVIFGGEIAMDPLAHVGPGQLTDGTFALDTETLQWERLDKFGGEEETPSSRGWTASTTATIDGKKGLVMHGGKAPTNDRFDDLFFYGIDSA
protein production: not failed

MSLKIKHEHIRMAMNAWAHPDGEKVPAAEITRAYFELGMTFPELYDDSHPEALARNTQKIFRWVEKDTPDAVEKIQALLPAIEKSMPPLLVARMRSHSSAYFRELVETRERLVRDADDFVAVAIAGFNQMNRGGPAGNIVAVHEGHHHHHH
protein production: not failed

KFGELREISGNQYVNEVTNAEKDLWVVIHLYRSSVPMCLVVNQHLSVLARKFPETKFVKAIVNSCIEHYHDNCLPTIFVYKNGQIEGKFIGIIECGGINLKLEELEWKLSEVGAIQSDLEEN
protein production: not failed

MNQPDIKGSCASEFTKVRDAFERNFVLRNEVGAAVAVWVDGDLVVNLWGGSADAGGTRPWQHDTLATVLSGTKALTATCVHQLVDRGELDLHAPVARYWPEFGQAGKQAITLAMVMSHRSGAIGPRGRLGWEQVADWDFVCEQLAAAEPWWQPGAAQGYHMTTFGFILGEVFRRVTGRTVGQYLRTEIAEPLGADVHIGLHPGEQLRCADLVDKPHIRQLLADVQAPGYPTSLNEHPKAALSVSMGFAPDDELGSNDLQLWRQIEFPGTNGQVSALGLATFYNGLAQEKLLSREHMELVRVSQGGFDTDLVLGPRVADHGWGLGYMLNQRGVNGPNPRIFGHGGLGGSFGFVDLEHRIGYAYVMNRFDATKANADPRSVVLSNEVYAALGVNRS
protein production: failed

MQRFVLRDWHYRGLSMSLMAQTDKPNIVIIMTDQQRADLCGREGFPLAVTPYVDQLAQENVWFNKAYTVAPASSPARCSMFTGRFPSATHVRTNHNIPDIFFEQDLVGVLKENGYKTALVGKNHAYLKPADLDFWSEYGHWGKNKKTTPEEKETARFLNQKARGQWLEPSPIPVEEQHPAKIVNETLSWIESQKENPFFVWVSFPEPHNPYQVCEPYYSMFSPDKLPVLKTSRKDLEKKGEKYRILAELEDASCPNLEQDLPRIRANYIGMIRLIDDQIKRLIESLKASGQFENTIFVVLSDHGDYWGEYGLIRKGAGLSESLARIPMVWAGYHVKNQSAPMDSHVSIADIFPTLCSAIGAKIPAGVQGRSLWPMLTGKEYPKEEFSSIVVQQGFGGAHVGLDSSLTFEQEGALTPGKIAYFDELNTWTQSGTSRMVRKDDWKLVMDNYGNGELYNLKKDPSEVDNLFGKKKYTAVQTELLTKLVAWELRLQDPLPLPRKRYHFKQDPYNYLQPEQLEHHHHHH
protein production: failed

VDKVDSREEKITEKFDEPATYIEDAEQLEGEETLVTPGTQGERTVTRKIVTVNGVETANEVVNEEIITPGVAATIKRGAKK
protein production: failed

MNFNWFLMLFLFNFSVLLGSDTTALGHYQRANEYYLSKRYYDAIDELVEAIKINPNYYEAYKFIASIYYSLKIYTQAQFFIEKASKMSNEDTEYKILYANILLKNDKIDQAKKIYSEVLVKQRNNIDALVGLASIFEKNGLFIAAANYYLSILDYSQNNYSAFEHLIDIYQRLGMHDKIRHLINKVRVNFLSFPDFHKRVAEFYISINNLGLAEKYALNYLALIESSYKDFGVVDAYRLLALVYLHEFKYEDAIEALQKAILVNKDSDELYYLLGYSYLRFGDIEKAILNLERAKNLKKDLEFYNIALEESFFASNFRNFLKNNSNARISKHYENEGLKAFKSLNLNKALFNAKNAVDIWPDNDSARFLLSKIYKLMNLDIMAYEQLFYLAKQRNSTDSRILDFYDVVSFDVRKSLFYKYGYKSIADFNKLYDDRVVYKMAIFTQSENKFFGANDLILRYAERVLERNLNMEIVNYNFDYNKNRDYLINNFSEGFSYSRNNNLDLFLIFDFKADILKNTATLVVNIFSGKTGIKLVSFSYDVGGVNYLSNALNSLSKDFHDYLPKKGKILQIKNDDALINLGQVNGVVKGDVFLILKEGALNSDTRDSGFIVYKKSDILGEILIEDISDYISRGIVKSSTFLKDYVQEGATVLIKR
protein production: failed

MVKDLSDMSLKELWQLFPIFLVEHKEEWEDWYEEEKERLLHLLPSQSIKSISHIGSTAVPDIWAKNIVDILLEVPEKEDLQDFKKRLLDAGYLLMSEGEKRLSFNKGYTKDGFAEKVFHLHLRYQGDNDELYFRDYLREYPEVAKDYERLKLGLWEKYEHNRDAYTDAKSDFIRKYTQKAKKNDKGKDN
protein production: not failed

MYNAQLGIGILKYVNTMTKYSALLVLFLFSMIANSINAQPFVALDNRNKIELNEHDLWFKTQSLDTNPSFLALSQLHQNANRVTSTFGGSGAYISKIKLTNTKGQKDTWFVNIHAVYLDIGTAYWQPEHGEPIVLESFGHMGSENPKLAHSQAFSLLLNQNESGTLWVYIQAKMFATPVVVELYSKKEFYKKQFITNSISTISFTVMMTLALIAFFIYLRTKYLVTLACTGYIGIQGLGWFTASGSFGHLLTVSAFNPVYSGIIIFPFAIASASQFTKLLFNCPQKHPKLTLTFNLLSIVCFSLGIIMPFIPFTQSFLISHIIATIWIPLCIGTGIFMLAKNDFRAKYYLIGNLVYGFTLAGYILSHLYKIDWNISLEVIVQIALTIDCMCILLSLSEWLQIQQKEFHRSYAISRIDPLTQIGNRFAQNEKLASLKGPYCITFIDLDGFKKINDKLGHEEGDKVLIATANIMQKKLQELGSIYRCGGDEFIWVVDIENVQQTEAIITKLSDLLLQTEKELQHRGWSEAGLSFGIATSFETLNQSECLSLADQRMYKYKQDKKSIKGLAACS
protein production: failed

MIASVASTTKDRLEIVKAFRNKEITILIATSILERGVTFPNVDVFVINSEHPNFTKSALIQMAGRVGRSPERPTGLVSFFHYGKSKAMCQAVREIKKMNQLGCFSLEHHHHHH
protein production: failed

MKIKGTEKVPILIFLGALAIGIAFLPPENSLTYDGALYINIARSLTKSVTSFTYQGIYMMYRPPLYPYTLSIFFRVFSSNHLLIARLVSVFSFALTSVLVYLLTLEMFRDSVKGIIASLFYIFNPLAFTMAGRELVHSEFTFFYTLAIYLLYTGKVRKSNTRIYLSFIAAGLAILTRYTGLSIVLVFLTYLWLTEDWNWVRRREYLIGFALLFLTLLPWLYMGHLYYGGFFRPFKIASKVVTLDRPVSAFDFIKMVIGDMGFLLPALAVLGFFRVKKDENGWLILSWLVMGGGGILTVTHKESRFITFLSPVIAILASEGIYLLSNLTPRIRRNNIVAVILALLLLIPIGMKADNLRDRWSIVGVYDSNVVRYVSEHYDGKKILVSPYLYTIAGYYYPNAEIDMILNRKEIVEKIAKGYYDVIIHKDPNVYLNIEESGNYVLVKEFHGGRFKVYINRRSLAK
protein production: failed

MCLGMAGEHMAPNSKHLSLHMPVDFIDALAQAESIDEILKVVATWFMEMFVADRASITFPVNDSHLRVVALEGNRVIDVDAPVPIHGTMVGRVFSRGQAEICDDLAASTDLDCLILASRGLGSCLDAPLRSGRDCYGTINVGRRDRNGFTLADMRKIEALAMWIATLIRVHRQVERLTHLSRTDPLTQIMNRRAFTESFQTRRLEGERRRAEVGTGLGFAVVDIDHFKQINDTYGHDVGDVVLAFVGKMMNEFFRESDCVARFGGEEFCVLMQDVDEGGMQRLLERFRVALGDCVVTHSAGTVSITASIGAVLVKTSVAGIDRAFRSADLALYKAKADGRNRVRIAPSAEQSHAGNPANRLCYPG
protein production: failed
